Data from publication PMC3636998.
Each block holds one substance with its values, some of them ahead of it.

Tests used:
[1] = target: GST fusion protein containing the C-terminal domain (CTD; residues 761-1042) of DGLα (UniProt Q9Y4D2); test: pull-down
DGLα = DGLα (UniProt Q9Y4D2); test: anti-V5 co-immunoprecipitation, CaMKIIα blot; settings: reference: wild type CaMKIIα; sites T286
[2] = target: DGLα-V5 (full-length diacylglycerol lipase-α with a C-terminal V5-epitope tag) (UniProt Q9Y4D2); test: co-IP
[3] = target: DGLα C-terminal domain, 761-1042 (UniProt Q9Y4D2); test: GST cosedimentation, CaMKII blot; settings: reference: non-phosphorylated CaMKIIα; sites T286

CaMKII detected, normalized to the input [1]: 0.37
Substance: purified Thr286-autophosphorylated CaMKIIα (from UniProt P11798 1-478) (enzyme)

percent of reference (DGLα): weaker; reference 100±5%
Substance: CaMKIIα (from UniProt P11798) T286A

interaction with DGLα-V5, percent of WT [2]: 100%
Substance: WT CaMKIIα expressed in HEK293T cells (from UniProt P11798 1-478) (enzyme)

other: bound CaMKII normalised to input aliquot [3]: gained; reference 0.11±0.03
Substance: CaMKIIα (from UniProt P11798) Thr286-autophosphorylated CaMKIIα
